Measurements: article PMC3958483, “Fine Specificity and Molecular Competition in SLAM Family Receptor Signalling” (PLoS ONE, 2014)
Blank lines part the entries; values can stand above or below the molecule they belong to.

Tests used:
[1] = Pull-down with phosphorylated CD244 ITSM1 from NK cell lysates, LC-MS/MS; assay type: binding; details: human NK cell lysates; compared with control phosphopeptide SHIP-1 Y865
Experimental: For pull-down of associated proteins, streptavidin Sepharose (GE Healthcare) was pre-coated with saturating amounts of peptide or EAT-2. NK92 cells (4×10^8) were treated with 500 μM pervanadate for 15 minutes, then lysed in PBS, 1% Triton X-100, 1 mM sodium orthovanadate in the presence of mammalian protease inhibitor solution (Sigma). Lysates were pre-cleared by centrifugation, followed by incubation with streptavidin Sepharose. Peptide or EAT-2-coated streptavidin beads were incubated with NK92 lysates for 2 hours at 4°C with rotation. Beads were washed once with 15 ml ice cold PBS/1% (v/v) Triton X-100. Bound protein was eluted using 100 mM glycine-HCl pH 2.5.
Protein samples were prepared for mass spectrometry as described previously. Briefly, eluted proteins were spun onto the membranes of Vivacon 500 filters (10,000 MWCO – Sartorius). Membranes were washed once with PBS then proteins were denatured with 8 M urea, reduced with 10 mM DTT in 25 mM ammonium bicarbonate buffer, followed by alkylation with 50 mM iodoacetamide. Proteins were then digested overnight with trypsin. Tryptic peptides were then eluted from the membrane and analyzed on an Ultimate 3000 HPLC-coupled Orbitrap XL mass spectrometer. Proteins were identified by liquid chromatography-coupled tandem mass-spectrometry (LC-MS/MS). Raw data files were converted to mzXML format using ReADW (v. 4.2.1) and submitted to the Central Proteomics Facilities Pipeline for database comparison and peptide identification. Searching against the International Protein Index (IPI) human protein sequence database for protein identification, protein and peptide hits were statistically validated by applying a 1% false discovery rate (FDR) by searching against a concatenated target/decoy database. Datasets were searched with variable peptide modifications for phosphotyrosine, phosphoserine, phosphothreonine, oxidation of methionine and deamination.
Protein identification data were exported into ProteinCenter (v3.8.3013 – Thermo Fisher) for filtering and annotation. Results were filtered to remove any proteins with less than 3 unique peptides, less than 10 percent sequence coverage, or median protein probability scores less than 0.5. To establish sample specificity, any protein with at least 10-fold greater sequence coverage in one sample compared with the other was considered to be specific for that sample.
Similarly, differences in specificity of inhibitory SH2 domain containing proteins for ITSMs are relevant to understanding mechanisms of inhibition by ITSMs. We focused on CD244 ITSMs to establish general paradigms.

EAT-2 = molecular target: T1, EAT-2 (Homo sapiens, UniProt O14796); experiment: EAT-2 expression in NK92 after RNA interference; assay type: cell-based; details: shRNA, NK92 cells; from 0.44 μM
T1 sequence (O14796 1-132): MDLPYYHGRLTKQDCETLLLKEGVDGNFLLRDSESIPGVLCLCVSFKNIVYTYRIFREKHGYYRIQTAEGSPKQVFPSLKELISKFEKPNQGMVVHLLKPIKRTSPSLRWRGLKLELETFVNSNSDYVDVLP
Experimental: Lentiviral constructs expressing gene-specific shRNAs in vector pLKO.1 were obtained from Open Biosystems. […] As a non-targeting control, the hairpin sequence 5′-[…] was expressed in pLKO.1. Lentiviral particles were produced through polyethylenimine (PEI-Sigma) co-transfection of 293 T cells with pLKO.1 along with packaging vectors pMD2.G and pSPAX2 (Addgene; Didier Trono Laboratory). Virus was produced in RPMI 1640/10% heat-inactivated FCS for 48–72 hours. Viral supernatants were collected and NK92 cells were transduced twice overnight in the presence of 1000 U/ml IL-2. Cells with stable shRNA expression were selected using 3 μg/ml puromycin (Invitrogen) for 72 hours prior to use in functional assays.
For quantitation of protein expression, NK92 cell lysates were prepared using buffer (150 mM NaCl, 20 mM Tris-HCl pH 7.4, 10% glycerol, 2 mM EDTA, 10 mM NaF, 1 mM PMSF) containing 0.5% Triton X-100. Lysates were resolved by SDS-PAGE under reducing conditions using Novex gradient gels and transferred to nitrocellulose membranes for western blotting by standard protocols. […] SHP-2 levels in 10^5 cell equivalents were analysed in a similar manner with recombinant SHP-2 N+C as a standard (25, 50 and 100 ng) and anti-SHP-2 (Cell Signaling #3752). […] Quantitation of protein expression was performed using LI-COR Odyssey Sa software version 1.0. […]

NK92 cells = experiment: IFNγ production by NK92 cells; assay type: cell-based, human; details: TJW, unpublished

intracellular EAT-2 concentration after 50% knockdown (EAT-2): approximately 0.2 μM
B1: EAT-2: small SH2 domain containing adapter protein (protein)
chain: T1 sequence (O14796 1-132)
modifications: left off: His tag, end not stated, state not stated
notes: small SH2 domain containing adapter protein
pull-down by CD244 ITSM1 [1]: identifying SAP and EAT-2

B2: PLCγ2: phospholipase C gamma-2 (protein)
chain: MSTTVNVDSLAEYEKSQIKRALELGTVMTVFSFRKSTPERRTVQVIMETRQVAWSKTADKIEGFLDIMEIKEIRPGKNSKDFERAKAVRQKEDCCFTILYGTQFVLSTLSLAADSKEDAVNWLSGLKILHQEAMNASTPTIIESWLRKQIYSVDQTRRNSISLRELKTILPLINFKVSSAKFLKDKFVEIGAHKDELSFEQFHLFYKKLMFEQQKSILDEFKKDSSVFILGNTDRPDASAVYLHDFQRFLIHEQQEHWAQDLNKVRERMTKFIDDTMRETAEPFLFVDEFLTYLFSRENSIWDEKYDAVDMQDMNNPLSHYWISSSHNTYLTGDQLRSESSPEAYIRCLRMGCRCIELDCWDGPDGKPVIYHGWTRTTKIKFDDVVQAIKDHAFVTSSFPVILSIEEHCSVEQQRHMAKAFKEVFGDLLLTKPTEASADQLPSPSQLREKIIIKHKKLGPRGDVDVNMEDKKDEHKQQGELYMWDSIDQKWTRHYCAIADAKLSFSDDIEQTMEEEVPQDIPPTELHFGEKWFHKKVEKRTSAEKLLQEYCMETGGKDGTFLVRESETFPNDYTLSFWRSGRVQHCRIRSTMEGGTLKYYLTDNLTFSSIYALIQHYRETHLRCAEFELRLTDPVPNPNPHESKPWYYDSLSRGEAEDMLMRIPRDGAFLIRKREGSDSYAITFRARGKVKHCRINRDGRHFVLGTSAYFESLVELVSYYEKHSLYRKMRLRYPVTPELLERYNMERDINSLYDVSRMYVDPSEINPSMPQRTVKALYDYKAKRSDELSFCRGALIHNVSKEPGGWWKGDYGTRIQQYFPSNYVEDISTADFEELEKQIIEDNPLGSLCRGILDLNTYNVVKAPQGKNQKSFVFILEPKQQGDPPVEFATDRVEELFEWFQSIREITWKIDTKENNMKYWEKNQSIAIELSDLVVYCKPTSKTKDNLENPDFREIRSFVETKADSIIRQKPVDLLKYNQKGLTRVYPKGQRVDSSNYDPFRLWLCGSQMVALNFQTADKYMQMNHALFSLNGRTGYVLQPESMRTEKYDPMPPESQRKILMTLTVKVLGARHLPKLGRSIACPFVEVEICGAEYDNNKFKTTVVNDNGLSPIWAPTQEKVTFEIYDPNLAFLRFVVYEEDMFSDPNFLAHATYPIKAVKSGFRSVPLKNGYSEDIELASLLVFCEMRPVLESEEELYSSCRQLRRRQEELNNQLFLYDTHQNLRNANRDALVKEFSVNENQLQLYQEKCNKRLREKRVSNSKFYS
effect on IFNγ production by NK92 cells (NK92 cells): activating
